Consider 18 variants from the supplement of paper PMC7125110.

± gives the standard error. For some of these results: Fewer inactive variants are shown than the library holds. Bounds are passed on as bounds.

To fix the notation:
B1: glmS ribozyme (parent)
chain: AUAAAAGCGCCAGAACUACAGAAAUGUAGUUGACGAGGAGGAGGUUUAUCGAAUUUUCGGCGGAUGCCUCCAAA

Conditions in all cases: with glucosamine-6-phosphate
Variants of B1 are the subject of data set [1]. Nature of the data set: kcat; higher = faster cleavage; RNA array. The procedure, abridged: (§1)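 The measurements used barcoded ribozyme variants on sequenced MiSeq chips, transcribed in situ by E. coli RNA polymerase and tracked at 37 °C with a hybridised Cy3 probe. Glucosamine-6-phosphate, 40 μM to 10 mM in HEPES/KCl/Mg(OAc)2 buffer, was flowed in while tiles were imaged over ~14 h. Baseline-normalised signals, also normalised to non-cleaving reference variants, gave per-tile medians that were fit to one- or two-exponential decays for kobs. kcat and KM resulted from weighted Michaelis–Menten fits across concentrations.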

Data set [2] covers variants of B1. Nature of the data set: self-cleavage kobs at 640 uM GlcN6P; higher = faster cleavage; RNA array. Put shortly: as §1
Variants of B1 are the subject of data set [3]. Nature of the data set: self-cleavage kobs at 2500 uM GlcN6P; higher = faster cleavage; RNA array. The procedure, abridged: as §1
In data set [4] the parent is B1. In words: KM; higher = weaker cofactor use; RNA array. Put shortly: as §1
In data set [5] the parent is B1. Nature of the data set: self-cleavage kobs at 40 uM GlcN6P; higher = faster cleavage; RNA array. The procedure, abridged: as §1
In data set [6] the parent is B1. Nature of the data set: self-cleavage kobs at 160 uM GlcN6P; higher = faster cleavage; RNA array. Put shortly:
as §1

Data set [7] covers variants of B1. Nature of the data set: self-cleavage kobs at 10000 uM GlcN6P; higher = faster cleavage; RNA array. Put shortly:
as §1

With C16A U69G, the kcat in data set [1] is 7.88e-05 ± 1.9e-05 s⁻¹. Besides, the “self-cleavage kobs at 640 uM GlcN6P” value in data set [2] amounted to 7.48e-05 ± 1.5e-05 s⁻¹. The “self-cleavage kobs at 2500 uM GlcN6P” value in data set [3] was determined as 6.89e-05 ± 1.5e-05 s⁻¹.

As for G40U C71G, the catalytic constant (kcat) in data set [1] stood at 0.00552 ± 0.00087 s⁻¹. Further, the KM in data set [4] came out at 1200 ± 280 µM. The “self-cleavage kobs at 40 uM GlcN6P” value in data set [5] amounted to 0.000211 ± 2.1e-05 s⁻¹. For the same variant, the “self-cleavage kobs at 160 uM GlcN6P” value in data set [6] was determined as 0.000498 ± 8.3e-05 s⁻¹. Further, in data set [2], the “self-cleavage kobs at 640 uM GlcN6P” value was determined as 0.00193 ± 0.00025 s⁻¹. Besides, the “self-cleavage kobs at 2500 uM GlcN6P” value in data set [3] is 0.00351 ± 0.00048 s⁻¹. In addition, the “self-cleavage kobs at 10000 uM GlcN6P” value in data set [7] is 0.00519 ± 0.00058 s⁻¹.

Regarding C16A U46G A48G C50U C67A, in data set [1], the kcat was 1.04e-05 ± 4.5e-06 s⁻¹.

Take A52U C70U: the kcat in data set [1] was 0.00063 ± 0.0001 s⁻¹. Further, the KM in data set [4] was found to be 3490 ± 1100 µM. In data set [2], the “self-cleavage kobs at 640 uM GlcN6P” value came out at 0.000122 ± 2e-05 s⁻¹. Besides, the “self-cleavage kobs at 2500 uM GlcN6P” value in data set [3] is 0.000228 ± 3.4e-05 s⁻¹. Moreover, the “self-cleavage kobs at 10000 uM GlcN6P” value in data set [7] stood at 0.000483 ± 4.7e-05 s⁻¹.

In the case of A52U C70A, the kcat in data set [1] turned out to be 5.6e-05 ± 1.2e-05 s⁻¹. The “self-cleavage kobs at 160 uM GlcN6P” value in data set [6] was 3.06e-05 ± 1.5e-05 s⁻¹. In addition, in data set [2], the “self-cleavage kobs at 640 uM GlcN6P” value stood at 3.63e-05 ± 1.3e-05 s⁻¹. Moreover, the “self-cleavage kobs at 2500 uM GlcN6P” value in data set [3] came to 8.32e-05 ± 1.6e-05 s⁻¹. Also, in data set [7], the “self-cleavage kobs at 10000 uM GlcN6P” value was 4.7e-05 ± 1e-05 s⁻¹.

Regarding U54G, the kcat in data set [1] came to 0.0504 ± 0.0099 s⁻¹. Further, the KM in data set [4] worked out at 1870 ± 470 µM. For the same variant, in data set [5], the “self-cleavage kobs at 40 uM GlcN6P” value was 0.00117 ± 3.8e-05 s⁻¹. Moreover, the “self-cleavage kobs at 160 uM GlcN6P” value in data set [6] was 0.00365 ± 0.00023 s⁻¹. Besides, the “self-cleavage kobs at 640 uM GlcN6P” value in data set [2] came to 0.0116 ± 0.00052 s⁻¹. In addition, the “self-cleavage kobs at 2500 uM GlcN6P” value in data set [3] worked out at 0.0251 ± 0.0014 s⁻¹. In data set [7], the “self-cleavage kobs at 10000 uM GlcN6P” value amounted to 0.0511 ± 0.0026 s⁻¹.

Turning to G13U A14U, the kcat in data set [1] is 0.000743 ± 0.00015 s⁻¹. Further, in data set [4], the KM amounted to 2270 ± 1000 µM. In data set [6], the “self-cleavage kobs at 160 uM GlcN6P” value turned out to be 8.56e-05 ± 2.3e-05 s⁻¹. Further, in data set [2], the “self-cleavage kobs at 640 uM GlcN6P” value worked out at 0.000174 ± 3.7e-05 s⁻¹. The “self-cleavage kobs at 2500 uM GlcN6P” value in data set [3] worked out at 0.000331 ± 4.6e-05 s⁻¹. For the same variant, in data set [7], the “self-cleavage kobs at 10000 uM GlcN6P” value came to 0.00066 ± 7.3e-05 s⁻¹.

In the case of U30G C68G, the kcat in data set [1] was found to be 3.09e-05 ± 2.2e-06 s⁻¹. In addition, the KM in data set [4] turned out to be 120 ± 57 µM. Moreover, the “self-cleavage kobs at 2500 uM GlcN6P” value in data set [3] was found to be 3.26e-05 ± 1.2e-05 s⁻¹. Besides, in data set [7], the “self-cleavage kobs at 10000 uM GlcN6P” value came out at 2.71e-05 ± 1.3e-05 s⁻¹.

On to C10U C11U, for which the kcat in data set [1] is 3.12e-05 ± 1.5e-05 s⁻¹. The “self-cleavage kobs at 40 uM GlcN6P” value in data set [5] is under 1e-05 s⁻¹. Besides, the “self-cleavage kobs at 160 uM GlcN6P” value in data set [6] was under 1e-05 s⁻¹.

For the variant A6U U30C U31G, the turnover number (kcat) in data set [1] was found to be 9.88e-05 ± 6.8e-06 s⁻¹. In addition, the KM in data set [4] was 7220 ± 1100 µM. The “self-cleavage kobs at 10000 uM GlcN6P” value in data set [7] stood at 5.74e-05 ± 1.6e-05 s⁻¹.

Regarding A33U G41U, in data set [1], the catalytic constant (kcat) turned out to be 2.33e-05 ± 1.9e-06 s⁻¹. Further, the “self-cleavage kobs at 40 uM GlcN6P” value in data set [5] is under 1e-05 s⁻¹. Besides, the “self-cleavage kobs at 160 uM GlcN6P” value in data set [6] is under 1e-05 s⁻¹. The “self-cleavage kobs at 2500 uM GlcN6P” value in data set [3] is 2.26e-05 ± 8e-06 s⁻¹. For the same variant, the “self-cleavage kobs at 10000 uM GlcN6P” value in data set [7] was determined as 2.14e-05 ± 6.8e-06 s⁻¹.

With G9A C71U, the kcat in data set [1] was 5.71e-05 ± 4.6e-06 s⁻¹.

In the case of G38C C68G, the kcat in data set [1] came to 1.31e-05 ± 3.9e-06 s⁻¹.

As for G29U G38A, the kcat in data set [1] was under 1e-05 s⁻¹. Further, the “self-cleavage kobs at 160 uM GlcN6P” value in data set [6] was under 1e-05 s⁻¹. In addition, in data set [2], the “self-cleavage kobs at 640 uM GlcN6P” value is under 1e-05 s⁻¹. The “self-cleavage kobs at 2500 uM GlcN6P” value in data set [3] is under 1e-05 s⁻¹.

As to U46C G66A, the kcat in data set [1] was 0.000975 ± 0.00019 s⁻¹. The KM in data set [4] came to 799 ± 250 µM. In addition, the “self-cleavage kobs at 40 uM GlcN6P” value in data set [5] is 5.14e-05 ± 1e-05 s⁻¹. Moreover, the “self-cleavage kobs at 640 uM GlcN6P” value in data set [2] amounted to 0.000364 ± 9.2e-05 s⁻¹. The “self-cleavage kobs at 2500 uM GlcN6P” value in data set [3] stood at 0.000662 ± 0.00023 s⁻¹. For the same variant, the “self-cleavage kobs at 10000 uM GlcN6P” value in data set [7] was 0.00107 ± 0.00025 s⁻¹.

For G13U U31A, in data set [1], the kcat was found to be 0.000483 ± 4.9e-05 s⁻¹. The KM in data set [4] worked out at 3730 ± 740 µM. Besides, the “self-cleavage kobs at 640 uM GlcN6P” value in data set [2] worked out at 6.93e-05 ± 1.3e-05 s⁻¹. In addition, the “self-cleavage kobs at 2500 uM GlcN6P” value in data set [3] was determined as 0.000216 ± 3.6e-05 s⁻¹. Further, in data set [7], the “self-cleavage kobs at 10000 uM GlcN6P” value is 0.000346 ± 3.6e-05 s⁻¹.

For A42G C68A, the kcat in data set [1] worked out at 1.2e-05 ± 4.3e-06 s⁻¹.

A14C G32A: the kcat in data set [1] stood at 0.00779 ± 0.0028 s⁻¹. Moreover, in data set [5], the “self-cleavage kobs at 40 uM GlcN6P” value stood at 0.000121 ± 2.5e-05 s⁻¹. For the same variant, in data set [6], the “self-cleavage kobs at 160 uM GlcN6P” value worked out at 0.000388 ± 0.00011 s⁻¹. For the same variant, in data set [2], the “self-cleavage kobs at 640 uM GlcN6P” value came out at 0.0014 ± 0.00034 s⁻¹. The “self-cleavage kobs at 2500 uM GlcN6P” value in data set [3] came to 0.00183 ± 0.00065 s⁻¹. For the same variant, the “self-cleavage kobs at 10000 uM GlcN6P” value in data set [7] is 0.00702 ± 0.00097 s⁻¹.

For orientation: kcat means the maximal rate divided by the concentration of active sites. As a reminder, the KM is the substrate concentration at which the rate is half of its maximum.
